Measurements as given in publication PMC12858062 (2026).

B1: Anti-Pfs48/45 monoclonal antibody TB31F (humanised version of 85RF45.1) (antibody, V domains shown)
VH: EVQLVQSGGGLVQPGGSLRLSCAASGFTFNNYWMSWVRQAPGKGLEWVSSISNIGGTIYYPDSVKGRFTISRDNSKNTLYLQMNSLRAEDTAVYYCTRDLRMSDYFDYWGQGTMVTVSS
VL: NFMLTQPHSVSESPGKTVTISCTRSTGNIGSNYVSWYQQRPGSSPTTVIYRDDQRPSGVPDRFSGSIDRSSNSASLTISGLKTEDEADYYCHSYSTGMYIFGGGTKLTVL
B2: C3-Fc (anti-Pfs48/45 nanobody C3 fused to hinge and Fc of human IgG1) (Fc fusion)
chain: QVQLQESGGGSVQPGGSLRLSCAASGFTFSSYWMYWVRQAPEKGLEWVSVINPGGRITIYTDSVKGRFAVSRDNAKNTVYLQLNSLKPEDTAVYYCAASRTYSNSYSPSDYDYWGQGTQVTVSS
B3: A4-Fc (anti-Pfs48/45 nanobody A4 fused to hinge and Fc of human IgG1) (Fc fusion)
chain: QVQLQESGGGLVQPGGSLRLSCAASGFTFSSYWMYWVRETPGKGLEWVSVINPGGRITIYTDSVKGRFTVSRDNAKNTVYLQMNSLKPEDTAVYFCAADLEYRAQLYAYWGQGTQVTVSS
B4: B2-Fc (anti-Pfs48/45 nanobody B2 fused to hinge and Fc of human IgG1) (Fc fusion)
chain: QVQLQESGGGLVQAGGSLRLSCAASGRTFSKYAMAWFRQAPGKEREFVAAISGAGGATVHAAPVKGRFTISRDNAKNMGYLQMNSLKPEDTAVYYCAQTGSTGWPAGRTYTYDYWGQGTQVTVSS

What follows are binders tested against Stabilised Pfs48/45 D3 (D3.mAgE1), PNGase F-deglycosylated, with C-terminal hexa-histidine tag and AviTag (P. falciparum) (assay: BLI).
With B1 the koff was 0.00239 s⁻¹. B2 gave a koff of 0.0106 s⁻¹. B3 showed a koff of 0.00851 s⁻¹. In the case of B4, the koff is reported as 0.00476 s⁻¹.
